One block for each binder: values may come before it.
Legend:
human serum albumin [1] = target: T1, human serum albumin (human, UniProt P02768 25-609); assay: X-ray co-crystal structure and in silico modelling
T1 construct: also called HSA
Description: The crystal structure was determined as follows: the purified proteins were used in crystallization trials employing both, a standard screen of approximately 1200 different conditions, as well as crystallization conditions identified using literature data. […] These conditions were also refined by systematically varying pH or precipitant concentrations. Crystals were obtained via the method of co-crystallization.
Crystals have been flash-frozen and measured at a temperature of 100K. The X-ray diffraction have been collected at the SWISS LIGHT SOURCE (SLS, Villigen, Switzerland) using cryogenic conditions. Data were processed using the programs XDS and XSCALE. The phase information necessary to determine and analyze the structure was obtained by molecular replacement. Subsequent model building and refinement was performed with the software packages CCP4 and COOT. The peptide parameterization was carried out with the program [sequence].

human serum albumin [2] = target: T1, human serum albumin; assay: SPR, BIAcore 3000, HSA on CM5 chip
Description: For this purpose, the fusion proteins were expressed in E. coli TG1 cells. […] Coating of the chip (CM5) was performed by amine coupling using NHS/EDC for activation and ethanolamine for deactivation (Biacore amine coupling kit). HBS-EP was used as flow buffer at a rate of 10 μl min-1. 20 μl of sample was injected for 120 s.

human serum albumin [3] = target: T1, human serum albumin; assay: phage ELISA, 5-fold phage dilutions on coated HSA, anti-M13 detection, near-infrared fluorescence
Description: 5-fold serial dilutions of phage clones (starting from ˜5×10¹¹ phage) were added to 96-well Nunc Maxisorp plates coated with human serum albumin (2 μg/ml in PBS, overnight at 4° C.; plates were blocked with Superblock T20 (Pierce) for 1 h at room temperature). […] The amount of IRDye bound was measured on Odyssey (LI-COR Biosciences). The dilution of phage was plotted against measured near-infrared fluorescence intensity (FIG. 2).

[4] = target: T2, cynomolgus monkey serum albumin (cynomolgus monkey, UniProt A2V9Z4 25-608); assay: SPR, BIAcore 3000, CSA on CM5 chip
T2 construct: amine-coupled to a CM5 chip; also called CSA; cynoSA
Description: The binding was determined in BIAcore™ 3000, by injecting concentration series of the fusion proteins ranging from 2 μM to 200 nM on a CM5 chip coated with ˜3000 RU HSA or CSA. Coating of the chip (CM5) was performed by amine coupling using NHS/EDC for activation and ethanolamine for deactivation (Biacore amine coupling kit). HBS-EP was used as flow buffer at a rate of […]. 90 μl of sample was injected for 120 s.

human serum albumin [5] = target: T1, human serum albumin; assay: phage competition ELISA: phage pre-incubated with 2 µM HSA, captured on coated HSA
Description: (§1) Unbound phage was captured by transferring 100 μl of the well mixture to the HSA coated Maxisorp plate and incubating at room temperature for 30 minutes. The plate with captured phage was washed with PBS-0.05% Tween 20 five times. Bound phages were detected with anti-M13 and goat-anti mouse IRDye conjugate. The amount of IRDye bound was measured on Odyssey (LI-COR Biosciences). The ratio of phage binding was calculated by the following equation: fluorescence signal of well with competitor/fluorescence signal of well with no competitor (Table III).
After respectively three and four selection rounds, monoclonal phage were screened for binding on HSA, in the manner described in Example 2. Clones that bind to HSA (FIGS. 7A to 7C and Table V) were screened in phage competition ELISA, in the manner described in Example 5. The ratio of phage binding was calculated by the following equation: fluorescence signal of well with 2 μM competitor/fluorescence signal of well with no competitor (Table VI).

von Willebrand factor = target: T3, von Willebrand factor (human, UniProt P04275 764-2813); assay: inhibition ELISA: ristocetin-induced binding of plasma vWF to fixed human platelets (glycoprotein Ib), bound vWF detected with anti-VWF-HRP
T3 construct: vWF of the human plasma in which the compounds were diluted; multimeric; also called vWF; VWF

human serum albumin [6] = target: T1, human serum albumin; assay: solution binding competition ELISA: phage pre-incubated with 1 µM HSA, captured on coated HSA
Description: A competition ELISA was performed to determine the relative binding affinity for the selected phage clones. 96-well Nunc Maxisorp plates were coated with 2 μg/ml HSA in coating buffer at 4° C. Plates were blocked with SuperblockT20 (Pierce) for 1 h at room temperature. The microtiter plates were washed with wash buffer (PBS, 0.05% Tween 20).
as §1

[7] = target: T2, cynomolgus monkey serum albumin; assay: SPR, Biacore 3000, cynoSA on CM5 chip, pH5 against pH7
Description: (§2) In brief, HSA and cynoSA were amine-coupled to a separate CM5 sensor chip at a density of respectively 1800RU and 1900RU. […] The three buffers used contained 50 mM phosphate, 150 mM NaCl and 0.005% surfactant P and were adjusted to either pH5, pH7 or pH8. Samples were injected at a flow-rate of 45 μL/min, association and dissociation were monitored during 120 sec and 300 sec. Binding curves were subsequently used to calculate the KD, association—and dissociation-rate constants with the BiaEvaluation software.

human serum albumin [8] = target: T1, human serum albumin; assay: SPR, Biacore 3000, HSA on CM5 chip, pH5 against pH7
Description: as §2

T2 sequence (A2V9Z4 25-608 limits assumed): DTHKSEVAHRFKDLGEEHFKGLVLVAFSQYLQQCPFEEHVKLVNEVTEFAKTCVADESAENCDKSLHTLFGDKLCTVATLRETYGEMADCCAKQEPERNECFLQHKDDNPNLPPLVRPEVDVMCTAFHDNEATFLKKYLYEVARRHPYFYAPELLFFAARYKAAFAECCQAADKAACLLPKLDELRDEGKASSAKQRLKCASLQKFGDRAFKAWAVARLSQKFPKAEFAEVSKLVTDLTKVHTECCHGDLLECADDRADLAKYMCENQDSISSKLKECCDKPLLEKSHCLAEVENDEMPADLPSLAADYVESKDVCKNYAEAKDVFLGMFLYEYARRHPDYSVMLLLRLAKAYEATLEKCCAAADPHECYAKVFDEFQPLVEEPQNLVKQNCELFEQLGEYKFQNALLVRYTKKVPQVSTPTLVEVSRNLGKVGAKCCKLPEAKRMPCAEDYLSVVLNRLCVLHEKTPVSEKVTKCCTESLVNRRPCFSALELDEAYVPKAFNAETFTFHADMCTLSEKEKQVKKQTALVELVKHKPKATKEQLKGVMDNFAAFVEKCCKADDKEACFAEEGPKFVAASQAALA

binding result (human serum albumin [1]): binds
B1: peptide of SEQ ID NO: 143 (peptide)
peptide: AAARYWDYDVFGGGTPVGGAAA
notes: 56E4 with one additional N-terminal and three C-terminal alanines; used for the co-crystal with HSA; also called peptide based on EXP56E4

binding result (human serum albumin [3]): binds
B3: PMP56E2 (peptide)
peptide: AAYYYDYDVFGGGTPGGE

Ratio 2 µM/0 µM HSA (human serum albumin [5]): 0.82
B6: PMP56E4 (peptide)
peptide: AARYWDYDVFGGGTPVGG
notes: also called EXP56E4

Ratio 1 µM/0 µM HSA (human serum albumin [6]): 0.43
B10: PMP56H5 (peptide)
peptide: AAFYDDYDVFGGGTPAGG
notes: also called 01G7

binding result (human serum albumin [3]): binds
B11: PMP56F2 (peptide)
peptide: AAPYRDYDVFGGGTPRGE

Ratio 2 µM/0 µM HSA (human serum albumin [5]): 0.91
B12: 59C2 (peptide)
peptide: AARDWDFDVFGGGTPVGG

Ratio 2 µM/0 µM HSA (human serum albumin [5]): 0.69
B13: 59F2 (peptide)
peptide: AARYWDFDVFGGGTPVGG

Ratio 2 µM/0 µM HSA (human serum albumin [5]): 0.87
B14: 59H12 (peptide)
peptide: AARSWDFDVFGGGTPVGG

binding result (human serum albumin [3]): binds
B16: 17D12 (peptide)
peptide: AASYSDYDVFGGGTDFGP

Continued, binder first:

B2: 2D3-56H5 fusion protein (other)
chain: EVQLVESGGSLVQPGGSLRLSCAASGFTFDDYAMSWVRQVPGKGLEWVSSINWSGTHTDYADSVKGRFTISRNNANNTLYLQMNSLKSEDTAVYYCAKNWRDAGTTWFEKSGSAGQGTQVTVSSGGGGSGGGSAAAFYDDYDVFGGGTPAGGAAAEQKLISEEDLNGAAHHHHHH
Kd (human serum albumin [2]): ~1200 nM
koff (human serum albumin [2]): 0.0093 s⁻¹
kon (human serum albumin [2]): 7570 M⁻¹ s⁻¹

B4: 2D3-9GS-56E4 (other)
chain: EVQLVESGGSLVQPGGSLRLSCAASGFTFDDYAMSWVRQVPGKGLEWVSSINWSGTHTDYADSVKGRFTISRNNANNTLYLQMNSLKSEDTAVYYCAKNWRDAGTTWFEKSGSAGQGTQVTVSSGGGGSGGGSRYWDYDVFGGGTPVGG
notes: untagged; Nanobody 2D3, 9GS linker, 56E4 without the two N-terminal alanines; also called 2D3-9GS-EXP56E4
Kd [4]: 495 nM
kon [4]: 17100 M⁻¹ s⁻¹

B5: 2D3-9GS-59C2 (other)
chain: EVQLVESGGSLVQPGGSLRLSCAASGFTFDDYAMSWVRQVPGKGLEWVSSINWSGTHTDYADSVKGRFTISRNNANNTLYLQMNSLKSEDTAVYYCAKNWRDAGTTWFEKSGSAGQGTQVTVSSGGGGSGGGSRDWDFDVFGGGTPVGG
notes: untagged; also called 2D3-9GS-EXP59C2; 2D3-EXP59C2
Kd [4]: 276 nM
kon [4]: 8980 M⁻¹ s⁻¹

B7: 12A2 sv1-AAA-12A2 sv1-9GS-59C2-9GS-59C2 (VHH)
chain: DVQLVESGGGLVQPGGSLRLSCAASGRTFSYNPMGWFRQAPGKGRELVAAISRTGGSTYYPESVEGRFTISRDNAKRTVYLQMNSLRAEDTAVYYCAAAGVRAEQGRVRTLPSEYTFWGQGTQVTVSSAAAEVQLVESGGGLVQPGGSLRLSCAASGRTFSYNPMGWFRQAPGKGRELVAAISRTGGSTYYPESVEGRFTISRDNAKRTVYLQMNSLRAEDTAVYYCAAAGVRAEQGRVRTLPSEYTFWGQGTQVTVSSGGGGSGGGSRDWDFDVFGGGTPVGGGGGGSGGGSRDWDFDVFGGGTPVGG
notes: also called vWF-0056; VWF0056
IC50 (read off the curve) (von Willebrand factor): ~20 nM

B8: PMP56A3 (peptide)
peptide: AALYDDYDVFGGGTPVGG
notes: also called 01C7; PMP26A3
Ratio 1 µM/0 µM HSA (human serum albumin [6]): 0.47

B9: 01B3 (peptide)
peptide: AALYDDYDVFGGGTPAGG
Ratio 1 µM/0 µM HSA (human serum albumin [6]): 0.42

B15: 12A2 sv1-AAA-12A2 sv1-9GS-59C2 (VHH)
chain: DVQLVESGGGLVQPGGSLRLSCAASGRTFSYNPMGWFRQAPGKGRELVAAISRTGGSTYYPESVEGRFTISRDNAKRTVYLQMNSLRAEDTAVYYCAAAGVRAEQGRVRTLPSEYTFWGQGTQVTVSSAAAEVQLVESGGGLVQPGGSLRLSCAASGRTFSYNPMGWFRQAPGKGRELVAAISRTGGSTYYPESVEGRFTISRDNAKRTVYLQMNSLRAEDTAVYYCAAAGVRAEQGRVRTLPSEYTFWGQGTQVTVSSGGGGSGGGSRDWDFDVFGGGTPVGG
notes: bivalent anti-vWF Nanobody with one C-terminal 59C2 peptide; also called vWF-0055; vWF 0055
fold decrease of affinity at pH5 [7]: ~10 fold
fold decrease of affinity at pH5 (human serum albumin [8]): ~10 fold
IC50 (read off the curve) (von Willebrand factor): ~10 nM

From US20120253008A1 (Ablynx, published 2012)
